Assay results: patent US20260098095A1 (Hoffmann-La Roche, published 2026)

Key:
Test in all cases: cell-based or functional assay
[1] = biological target: T1, HLA-A2/MAGE-A4 peptide MHC (pMHC) complex on cells (human)
[2] = biological target: D4A (human)
[3] = biological target: E7A (human)
[4] = biological target: V2A (human)
[5] = biological target: G5A (human)
[6] = biological target: T9A (human)
[7] = biological target: H8A (human)
[8] = biological target: R6A (human)
[9] = biological target: V10A (human)
[10] = biological target: G1A (human)
[11] = biological target: Y3A (human)
[12] = biological target: T1, HLA-A2/MAGE-A4 peptide MHC (pMHC) …; remark: listed apart in the source
[13] = biological target: T1, HLA-A2/MAGE-A4 peptide MHC (pMHC) …; remark: listed apart in the source
[14] = biological target: UBE2V2 (human)
[15] = biological target: KDM1A (human)
[16] = biological target: DPYSL3 (human)
[17] = biological target: CRMP1 (human)
[18] = biological target: HLA-A2 with peptide MAGB6 on T2 cells (human)
[19] = biological target: pfkA (human)
[20] = biological target: GAPDHS (human)
[21] = biological target: KEAP1 (human)
[22] = biological target: PIGG (human)
[23] = biological target: CCS (human)
[24] = biological target: MTOR (human)
[25] = biological target: EDC3 (human)
[26] = biological target: URB1 (human)
[27] = biological target: FBXO34 (human)
[28] = biological target: HLA-A2 with peptide MAGA10 on T2 cells (human)
[29] = biological target: DYNC1H1 (human)
[30] = biological target: ARF1 (human)
[31] = biological target: SLC45A1 (human)
[32] = biological target: UNC80 (human)
[33] = biological target: PKP1 (human)
[34] = biological target: MAGEB2 (human)
[35] = biological target: ARF3 (human)
[36] = biological target: DPYSL4 (human)
[37] = biological target: VPS13D (human)
[38] = biological target: gutQ (human)
[39] = biological target: BNRF1 (human)
[40] = biological target: T1, HLA-A2/MAGE-A4 peptide MHC (pMHC) …; remark: listed apart in the source

B1: Molecule E (bispecific antibody, V domains shown)
VH 1: not shown
VL 1: SSELTQDPAVSVALGQTVRITCQGDSLRSYYASWYQQKPGQAPVLVIYGKNNRPSGIPDRFSGSSSGNTASLTITGAQAEDEADYYCNSRQSSYYHHIVFGGGTKLTVL
VH 2: not shown
VL 2: QAVVTQEPSLTVSPGGTVTLTCGSSTGAVTTSNYANWVQEKPGQAFRGLIGGTNKRAPGTPARFSGSLLGGKAALTLSGAQPEDEAEYYCALWYSNLWVFGGGTKLTVL
[1]
  EC50, Jurkat-NFAT activation: 1.62 nM
[2]
  EC50, Jurkat-NFAT activation: 22.3 nM
[3]
  EC50, Jurkat-NFAT activation: 2.98 nM
[4]
  EC50, Jurkat-NFAT activation: 4.07 nM
[5]
  EC50, Jurkat-NFAT activation: 9.44 nM
[6]
  EC50, Jurkat-NFAT activation: 4.26 nM
[7]
  EC50, Jurkat-NFAT activation: 1.23 nM
[8]
  EC50, Jurkat-NFAT activation: 2.37 nM
[9]
  EC50, Jurkat-NFAT activation: 7.46 nM
[10]
  EC50, Jurkat-NFAT activation: 2.72 nM
[11]
  EC50, Jurkat-NFAT activation: 2.06 nM
[12]
  EC50 [pM], activation of Jurkat-NFAT reporter cells (luminescence, 6 h) with MAGE-A4 peptide pulsed T2 cells: 877 pM
[13]
  EC50 [pM], T-cell mediated lysis of C-33A cells, 24 h: 3980 pM
  EC50 [pM], T-cell mediated lysis of IM-9 cells, 24 h: 393 pM
  EC50 [pM], T-cell mediated lysis of NCI-H1755 cells, 24 h: 84.4 pM
  EC50 [pM], T-cell mediated lysis of UMUC-3 cells, 24 h: ~5800 pM
[14]
  % of MAGE-A4 signal, Jurkat-NFAT: 0.4%
[15]
  % of MAGE-A4 signal, Jurkat-NFAT: 0.34%
[16]
  % of MAGE-A4 signal, Jurkat-NFAT: 1.04%
[17]
  % of MAGE-A4 signal, Jurkat-NFAT: 0.37%
[18]
  % of MAGE-A4 signal, Jurkat-NFAT; grey (>2%): 110%
[19]
  % of MAGE-A4 signal, Jurkat-NFAT: 0.26%
[20]
  % of MAGE-A4 signal, Jurkat-NFAT: 0.39%
[21]
  % of MAGE-A4 signal, Jurkat-NFAT: 0.34%
[22]
  % of MAGE-A4 signal, Jurkat-NFAT: 0.26%
[23]
  % of MAGE-A4 signal, Jurkat-NFAT; grey (>2%): 38.6%
[24]
  % of MAGE-A4 signal, Jurkat-NFAT: 0.29%
[25]
  % of MAGE-A4 signal, Jurkat-NFAT: 0.54%
[26]
  % of MAGE-A4 signal, Jurkat-NFAT: 1.2%
[27]
  % of MAGE-A4 signal, Jurkat-NFAT; grey (>2%): 4.03%
[28]
  % of MAGE-A4 signal, Jurkat-NFAT; grey (>2%): 43.2%
[29]
  % of MAGE-A4 signal, Jurkat-NFAT: 0.17%
[30]
  % of MAGE-A4 signal, Jurkat-NFAT: 0.93%
[31]
  % of MAGE-A4 signal, Jurkat-NFAT: 0.38%
[32]
  % of MAGE-A4 signal, Jurkat-NFAT: 0.49%
[33]
  % of MAGE-A4 signal, Jurkat-NFAT: 0.43%
[34]
  % of MAGE-A4 signal, Jurkat-NFAT; grey (>2%): 108%
[35]
  % of MAGE-A4 signal, Jurkat-NFAT: 0.85%
[36]
  % of MAGE-A4 signal, Jurkat-NFAT: 0.48%
[37]
  % of MAGE-A4 signal, Jurkat-NFAT; grey (>2%): 47%
[38]
  % of MAGE-A4 signal, Jurkat-NFAT: 0.31%
[39]
  % of MAGE-A4 signal, Jurkat-NFAT: 0.45%
[40]
  EC50 [pM] 24 h, T-cell mediated lysis of MAGE-A4 peptide pulsed T2 cells: 32.7 pM

B2: Molecule F (bispecific antibody, V domains shown)
VH 1: not shown
VL 1: SSELTQDPAVSVALGQTVRITCQGDSLRSYYASWYQQKPGQAPVLVIYGKNNRPSGIPDRFSGSSSSNTASLTITGAQAEDEADYYCNSRMSSRYHHDVFGGGTKLTVL
VH 2: not shown
VL 2: QAVVTQEPSLTVSPGGTVTLTCGSSTGAVTTSNYANWVQEKPGQAFRGLIGGTNKRAPGTPARFSGSLLGGKAALTLSGAQPEDEAEYYCALWYSNLWVFGGGTKLTVL
[1]
  EC50, Jurkat-NFAT activation: 0.0954 nM
[2]
  EC50, Jurkat-NFAT activation: 9.95 nM
[3]
  EC50, Jurkat-NFAT activation: 0.332 nM
[4]
  EC50, Jurkat-NFAT activation: 6.57 nM
[5]
  EC50, Jurkat-NFAT activation: 1.09 nM
[6]
  EC50, Jurkat-NFAT activation: 0.45 nM
[7]
  EC50, Jurkat-NFAT activation: 0.0813 nM
[8]
  EC50, Jurkat-NFAT activation: 0.196 nM
[9]
  EC50, Jurkat-NFAT activation: 0.791 nM
[10]
  EC50, Jurkat-NFAT activation: 0.259 nM
[11]
  EC50, Jurkat-NFAT activation: 15 nM
[12]
  EC50 [pM], activation of Jurkat-NFAT reporter cells (luminescence, 6 h) with MAGE-A4 peptide pulsed T2 cells: 41.6 pM
[13]
  EC50 [pM], T-cell mediated lysis of A-375 cells, 24 h: 822 pM
  EC50 [pM], T-cell mediated lysis of C-33A cells, 24 h: 186 pM
  EC50 [pM], T-cell mediated lysis of IM-9 cells, 24 h: 8.3 pM
  EC50 [pM], T-cell mediated lysis of NCI-H1755 cells, 24 h: 2.7 pM
  EC50 [pM], T-cell mediated lysis of NCI-H2023 cells, 24 h: 890 pM
  EC50 [pM], T-cell mediated lysis of U266B1 cells, 24 h: 352 pM
  EC50 [pM], T-cell mediated lysis of UMUC-3 cells, 24 h: 429 pM
[14]
  % of MAGE-A4 signal, Jurkat-NFAT: 0.71%
[15]
  % of MAGE-A4 signal, Jurkat-NFAT: 0.9%
[16]
  % of MAGE-A4 signal, Jurkat-NFAT; grey (>2%): 61.9%
[17]
  % of MAGE-A4 signal, Jurkat-NFAT; grey (>2%): 6.54%
[18]
  % of MAGE-A4 signal, Jurkat-NFAT; grey (>2%): 130%
[19]
  % of MAGE-A4 signal, Jurkat-NFAT: 0.8%
[20]
  % of MAGE-A4 signal, Jurkat-NFAT: 1.01%
[21]
  % of MAGE-A4 signal, Jurkat-NFAT: 0.66%
[22]
  % of MAGE-A4 signal, Jurkat-NFAT: 0.78%
[23]
  % of MAGE-A4 signal, Jurkat-NFAT; grey (>2%): 76.8%
[24]
  % of MAGE-A4 signal, Jurkat-NFAT: 0.42%
[25]
  % of MAGE-A4 signal, Jurkat-NFAT: 0.89%
[26]
  % of MAGE-A4 signal, Jurkat-NFAT; grey (>2%): 78.4%
[27]
  % of MAGE-A4 signal, Jurkat-NFAT: 0.78%
[28]
  % of MAGE-A4 signal, Jurkat-NFAT; grey (>2%): 145%
[29]
  % of MAGE-A4 signal, Jurkat-NFAT: 0.64%
[30]
  % of MAGE-A4 signal, Jurkat-NFAT: 1.58%
[31]
  % of MAGE-A4 signal, Jurkat-NFAT: 0.68%
[32]
  % of MAGE-A4 signal, Jurkat-NFAT: 1.05%
[33]
  % of MAGE-A4 signal, Jurkat-NFAT: 0.64%
[34]
  % of MAGE-A4 signal, Jurkat-NFAT; grey (>2%): 126%
[35]
  % of MAGE-A4 signal, Jurkat-NFAT: 1.53%
[36]
  % of MAGE-A4 signal, Jurkat-NFAT; grey (>2%): 14.2%
[37]
  % of MAGE-A4 signal, Jurkat-NFAT; grey (>2%): 172%
[38]
  % of MAGE-A4 signal, Jurkat-NFAT: 0.73%
[39]
  % of MAGE-A4 signal, Jurkat-NFAT: 0.55%
[40]
  EC50 [pM] 24 h, T-cell mediated lysis of MAGE-A4 peptide pulsed T2 cells: 1.5 pM
